The record followed here is PMC8509413.

For experiment [1], the target named is wild-type equine lutropin/choriogonadotropin receptor (eLH/CGR) (equine).
The target is the same in experiment [2]. This is another data set of the same source.

Take “recombinant equine chorionic gonadotropin (rec-eCGβ/α) (from UniProt P08751 21-169; P01220 25-120) (ligand)”: the EC50 of rec-eCG-stimulated cAMP accumulation (HTRF) in transiently transfected CHO-K1 cells, 30 min with eLH/CGR-R464H (equine) was determined as 0.914 µg/mL; in the experiment with eLH/CGR-D405N (equine), 0.135 µg/mL; with eLH/CGR-Y546F (equine) it was 0.0959 µg/mL; with eLH/CGR-M398T (equine) it was 0.0198 µg/mL; with eLH/CGR-D564G (equine), 0.0583 µg/mL; with eLH/CGR-L457R (equine), 0.0244 µg/mL. Further, the EC50 of rec-eCG-stimulated cAMP accumulation (HTRF) in transiently transfected CHO-K1 cells, 30 min with eLH/CGR-D578Y (equine) came out at 0.0479 µg/mL. The substance also gave an EC50 of rec-eCG-stimulated cAMP accumulation (HTRF) in transiently transfected CHO-K1 cells, 30 min (separate experiment of Table 2) in experiment [1] of 0.0303 µg/mL. The substance further gave an EC50 of rec-eCG-stimulated cAMP accumulation (HTRF) in transiently transfected CHO-K1 cells, 30 min (experiment of Table 1) in experiment [2] of 0.0442 µg/mL.
